B1: Dynamin-2 (Rattus norvegicus (Rat)), P39052 (parent)
chain: MGNRGMEELIPLVNKLQDAFSSIGQSCHLDLPQIAVVGGQSAGKSSVLENFVGRDFLPRGSGIVTRRPLILQLIFSKTEYAEFLHCKSKKFTDFDEVRQEIEAETDRVTGTNKGISPVPINLRVYSPHVLNLTLIDLPGITKVPVGDQPPDIEYQIKDMILQFISRESSLILAVTPANMDLANSDALKLAKEVDPQGLRTIGVITKLDLMDEGTDARDVLENKLLPLRRGYIGVVNRSQKDIEGRKDIRAALAAERKFFLSHPAYRHMADRMGTPHLQKTLNQQLTNHIRESLPTLRSKLQSQLLSLEKEVEEYKNFRPDDPTRKTKALLQMVQQFGVDFEKRIEGSGDQVDTLELSGGARINRIFHERFPFELVKMEFDEKDLRREISYAIKNIHGVRTGLFTPDLAFEAIVKKQVVKLKEPCLKCVDLVIQELISTVRQCTSKLSSYPRLREETERIVTTYIREREGRTKDQILLLIDIEQSYINTNHEDFIGFANAQQRSTQLNKKRAIPNQGEILVIRRGWLTINNISLMKGGSKEYWFVLTAESLSWYKDEEEKEKKYMLPLDNLKIRDVEKGFMSNKHVFAIFNTEQRNVYKDLRQIELACDSQEDVDSWKASFLRAGVYPEKDQAENEDGAQENTFSMDPQLERQVETIRNLVDSYVAIINKSIRDLMPKTIMHLMINNTKAFIHHELLAYLYSSADQSSLMEESAEQAQRRDDMLRMYHALKEALNIIGDISTSTVSTPVPPPVDDTWLQNTSSHSPTPQRRPVSSVHPPGRPPAVRGPTPGPPLIPMPVGATSSFSAPPIPSRPGPQNVFANNDPFSAPPQIPSRPARIPPGIPPGVPSRRAPAAPSRPTIIRPAEPSLLD

Variants of: B1
Settings: with sh3k1_human SH3KBP1, Q96B97
Sequence of sh3k1_human SH3KBP1, Q96B97 (Q96B97 whole entry): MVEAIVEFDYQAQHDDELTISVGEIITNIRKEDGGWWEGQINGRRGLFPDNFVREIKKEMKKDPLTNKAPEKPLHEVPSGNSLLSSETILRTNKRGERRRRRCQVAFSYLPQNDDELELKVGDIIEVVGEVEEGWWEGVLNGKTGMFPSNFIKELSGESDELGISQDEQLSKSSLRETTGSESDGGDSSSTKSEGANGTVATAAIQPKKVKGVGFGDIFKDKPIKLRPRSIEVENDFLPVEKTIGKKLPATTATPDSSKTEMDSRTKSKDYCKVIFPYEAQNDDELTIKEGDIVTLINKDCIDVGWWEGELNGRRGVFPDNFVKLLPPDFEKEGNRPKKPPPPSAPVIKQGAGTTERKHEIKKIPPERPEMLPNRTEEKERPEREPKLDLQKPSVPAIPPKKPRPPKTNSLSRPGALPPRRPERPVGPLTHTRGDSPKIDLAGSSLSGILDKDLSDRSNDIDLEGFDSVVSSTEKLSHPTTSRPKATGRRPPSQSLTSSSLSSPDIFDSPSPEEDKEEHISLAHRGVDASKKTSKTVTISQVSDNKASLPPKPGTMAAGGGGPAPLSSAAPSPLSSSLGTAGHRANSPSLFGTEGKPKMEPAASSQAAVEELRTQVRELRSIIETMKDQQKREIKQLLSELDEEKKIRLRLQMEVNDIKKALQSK

effect of a mutation on the interaction | Variant
disrupting interaction | P765A
disrupting interaction | P767A

Source: IntAct's records for PubMed 20711168
